In patent publication US20120316071A1 (published 2012):

Experiments:
[1] = target: T1, Recombinant Human DLL4 (R&D Systems Cat#1506-D4/CF) (human, UniProt Q9NR61 27-524); assay: MSD multispot ECL, antigen spotted on plate; Fab 0.2975 uM; blank spot 5019
T1 construct: Bought recombinant protein; also called delta-like protein 4; rHuman DLL4

[2] = target: T2, rHuman Notch-1/Fc Chimera, CF (R&D Systems Cat#3647-TK) (human, UniProt P46531 19-526); assay: as above
T2 construct: Bought recombinant protein; Fc part of the bought chimera not given

[3] = target: T3, rHuman Erythropoietin R/Fc Chimera, CF (R&D Systems Cat#963-ER) (human, UniProt P19235 25-250); assay: as above
T3 construct: Bought recombinant protein; also called EPO R/Fc; Epo R; Fc part of the bought chimera not given
T3 sequence (looked up): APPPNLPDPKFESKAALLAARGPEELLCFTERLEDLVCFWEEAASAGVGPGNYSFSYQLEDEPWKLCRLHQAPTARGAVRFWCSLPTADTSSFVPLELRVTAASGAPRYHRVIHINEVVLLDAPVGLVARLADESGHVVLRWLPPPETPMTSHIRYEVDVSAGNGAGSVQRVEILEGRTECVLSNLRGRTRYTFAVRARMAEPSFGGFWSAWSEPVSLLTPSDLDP

[4] = target: T4, rHuman P-Cadherin/Fc Chimera, CF (R&D Systems Cat#861-PC) (human, UniProt P22223 108-654); assay: as above
T4 construct: Bought recombinant protein; Fc part of the bought chimera not given

[5] = target: T5, rHuman EGF R/Fc Chimera, CF (R&D Systems Cat#344-ER) (human, UniProt P00533 25-645); assay: as above
T5 construct: Bought recombinant protein; also called epidermal growth factor receptor; Fc part of the bought chimera not given

[6] = target: T1, Recombinant Human DLL4 (R&D Systems …); assay: MSD multispot ECL, antigen spotted on plate; Fab 0.07438 uM; blank spot 2504
[7] = target: T2, rHuman Notch-1/Fc Chimera, CF (R&D …); assay: as above
[8] = target: T3, rHuman Erythropoietin R/Fc Chimera, CF …; assay: as above
[9] = target: T4, rHuman P-Cadherin/Fc Chimera, CF (R&D …); assay: as above
[10] = target: T5, rHuman EGF R/Fc Chimera, CF (R&D …); assay: as above
[11] = target: T1, Recombinant Human DLL4 (R&D Systems …); assay: MSD multispot ECL, antigen spotted on plate; Fab 0.01859 uM; blank spot 1776
[12] = target: T2, rHuman Notch-1/Fc Chimera, CF (R&D …); assay: as above
[13] = target: T3, rHuman Erythropoietin R/Fc Chimera, CF …; assay: as above
[14] = target: T4, rHuman P-Cadherin/Fc Chimera, CF (R&D …); assay: as above
[15] = target: T5, rHuman EGF R/Fc Chimera, CF (R&D …); assay: as above
[16] = target: T1, Recombinant Human DLL4 (R&D Systems …); assay: MSD multispot ECL, antigen spotted on plate; Fab 1.19 uM; blank spot 24999
[17] = target: T2, rHuman Notch-1/Fc Chimera, CF (R&D …); assay: as above
[18] = target: T3, rHuman Erythropoietin R/Fc Chimera, CF …; assay: as above
[19] = target: T4, rHuman P-Cadherin/Fc Chimera, CF (R&D …); assay: as above
[20] = target: T5, rHuman EGF R/Fc Chimera, CF (R&D …); assay: as above
[21] = target: T6, full-length human DLL4 expressed on the surface of CHO cells (human, UniProt Q9NR61 26-685); assay: flow cytometry; 250 nM biotinylated Notch-Fc on CHO-DLL4 cells, streptavidin-PE; no-Fab baseline of the blocking series
T6 construct: also called CHO-DLL4; DLL4-expressing CHO cells

[22] = target: T7, rHuman IGF-1 sR, (IGF-1 sR), CF (R&D Systems Cat#391-GR) (human, UniProt P08069 31-932); assay: Multispot ECL (MSD) assay, antigen spotted on plate, Fab at 0.0192 µM; blank spot 751
T7 construct: Bought recombinant soluble receptor; also called insulin-like growth factor-1 soluble receptor

[23] = target: T7, rHuman IGF-1 sR, (IGF-1 sR), CF (R&D …); assay: Multispot ECL (MSD) assay, antigen spotted on plate, Fab at 0.096 µM; blank spot 917
[24] = target: T7, rHuman IGF-1 sR, (IGF-1 sR), CF (R&D …); assay: Multispot ECL (MSD) assay, antigen spotted on plate, Fab at 0.48 µM; blank spot 2945

B1: Fab VH1-46_IGHD6-13*01_IGHJ4*01 & L2_IGKJ1*01 (Fab, V domains shown)
VH: QVQLVQSGAEVKKPGASVKVSCKASGYTFTSYYMHWVRQAPGQGLEWMGIINPSGGSTSYAQKFQGRVTMTRDTSTSTVYMELSSLRSEDTAVYYCAREGYSSSWYDYFDYWGQGTLVTVSS
VL: not shown
notes: Germline library Fab expressed in E. coli; VH was cloned into Plasmid A, which adds CH1 with His6 and Flag tags
Binder B1 has an ECL signal [1] of 34700, an ECL signal [2] of 37500 and an ECL signal [3] of 167000. For the same binder, the ECL signal [4] was 26000, the ECL signal [5] was 42200 and the ECL signal [6] was 20700. For the same binder, the ECL signal [7] was 22000, the ECL signal [8] was 154000 and the ECL signal [9] was 14800. For the same binder, the ECL signal [10] was 16600, the ECL signal [11] was 18900 and the ECL signal [12] was 17600. For the same binder, the ECL signal [13] was 188000, the ECL signal [14] was 11700 and the ECL signal [15] was 11800. It also gave an ECL signal [16] of 74900, an ECL signal [17] of 72000 and an ECL signal [18] of 193000. For the same binder, the ECL signal [19] was 69700 and the ECL signal [20] was 62500.

B2: rHuman Notch-1/Fc Chimera (Fc fusion)
chain: ARGPRCSQPGETCLNGGKCEAANGTEACVCGGAFVGPRCQDPNPCLSTPCKNAGTCHVVDRRGVADYACSCALGFSGPLCLTPLDNACLTNPCRNGGTCDLLTLTEYKCRCPPGWSGKSCQQADPCASNPCANGGQCLPFEASYICHCPPSFHGPTCRQDVNECGQKPGLCRHGGTCHNEVGSYRCVCRATHTGPNCERPYVPCSPSPCQNGGTCRPTGDVTHECACLPGFTGQNCEENIDDCPGNNCKNGGACVDGVNTYNCRCPPEWTGQYCTEDVDECQLMPNACQNGGTCHNTHGGYNCVCVNGWTGEDCSENIDDCASAACFHGATCHDRVASFYCECPHGRTGLLCHLNDACISNPCNEGSNCDTNPVNGKAICTCPSGYTGPACSQDVDECSLGANPCEHAGKCINTLGSFECQCLQGYTGPRCEIDVNECVSNPCQNDATCLDQIGEFQCICMPGYEGVHCEVNTDECASSPCLHNGRCLDKINEFQCECPTGFTGHLCQ
notes: Bought from R&D Systems (Cat#3647-TK); also called Notch-Fc; Notch-FC; Fc part of the bought chimera not given
B2 was tested, and the “signal of biotinylated Notch-Fc bound to CHO-DLL4 cells without Fab (read-out not given)” value [21] was 531.

B3: Fab VH1-46_IGHD6-13*01_IGHJ4*01 & A27_IGKJ1*01 (Fab, V domains shown)
VH: B1 VH
VL: not shown
notes: Germline Fab made in E. coli; VH was cloned in Plasmid A (CH1 constant region, His6 and Flag tags) and the kappa VL in Plasmid C (kappa CL); Only the variable domains are tied to this Fab by name
Work on B3 yielded an ECL signal [22] of 1830, an ECL signal [23] of 2450 and an ECL signal [24] of 8930.
